In publication PMC11609450, “Structure function analysis of ADP-dependent cyanobacterial phosphofructokinase reveals new phylogenetic grouping in the PFK-A family” (The Journal of Biological Chemistry, 2024):

What was measured:
PFK-A1 (Sll1196) [1] = biological target: T1, PFK-A1 (Sll1196) (Synechocystis sp. PCC 6803, UniProt P72830); assay: coupled NADH assay, effector test; assay type: biochemical; details: read-out: % residual activity at 1 mM
T1 construct: gene pfkA1

PFK-A2 (Sll0745) = biological target: T2, PFK-A2 (Sll0745) (Synechocystis sp. PCC 6803, UniProt Q55988); assay: coupled NADH assay (aldolase/TPI/GPDH), […] nm; global MWC fit; assay type: biochemical
T2 construct: gene pfkA2

PFK-A1 (Sll1196) [2] = biological target: T1, PFK-A1 (Sll1196); assay: as above; assay type: biochemical; details: read-out: PFK-A11
[3] = biological target: T3, PFK-A2 from M. aeruginosa PCC 9808 (Microcystis aeruginosa, UniProt I4HJC6); assay: coupled NADH assay, phosphate donor specificity; assay type: biochemical; details: 1 mM F6P, 2 mM ADP, 10 mM MgCl2, pH 7.7, 30 °C
T3 construct: gene pfkA; codon-optimized gene in pET15b, His tag, E. coli Rosetta (DE3), IMAC
T3 sequence (I4HJC6 1-402): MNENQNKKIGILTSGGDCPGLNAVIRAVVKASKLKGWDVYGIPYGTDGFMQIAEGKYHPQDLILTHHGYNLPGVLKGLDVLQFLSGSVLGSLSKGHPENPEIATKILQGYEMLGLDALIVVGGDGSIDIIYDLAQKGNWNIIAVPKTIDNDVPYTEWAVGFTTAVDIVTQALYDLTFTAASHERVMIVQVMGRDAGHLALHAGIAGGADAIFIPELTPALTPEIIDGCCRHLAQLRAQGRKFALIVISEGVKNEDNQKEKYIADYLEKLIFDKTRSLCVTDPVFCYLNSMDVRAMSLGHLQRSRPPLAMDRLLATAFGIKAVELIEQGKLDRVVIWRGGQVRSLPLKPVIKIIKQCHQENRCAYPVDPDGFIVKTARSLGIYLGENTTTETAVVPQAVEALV

[4] = biological target: T4, PFK-A1 from A. brasilense (Azospirillum brasilense, UniProt A0A560AK87); assay: coupled NADH assay, phosphate donor specificity; assay type: biochemical; details: 1 mM F6P, 2 mM ADP, 10 mM MgCl2, pH 7.7, 30 °C
T4 construct: gene pfkA; codon-optimized gene in pET15b, His tag, E. coli Rosetta (DE3), IMAC
T4 sequence (A0A560AK87 1-361): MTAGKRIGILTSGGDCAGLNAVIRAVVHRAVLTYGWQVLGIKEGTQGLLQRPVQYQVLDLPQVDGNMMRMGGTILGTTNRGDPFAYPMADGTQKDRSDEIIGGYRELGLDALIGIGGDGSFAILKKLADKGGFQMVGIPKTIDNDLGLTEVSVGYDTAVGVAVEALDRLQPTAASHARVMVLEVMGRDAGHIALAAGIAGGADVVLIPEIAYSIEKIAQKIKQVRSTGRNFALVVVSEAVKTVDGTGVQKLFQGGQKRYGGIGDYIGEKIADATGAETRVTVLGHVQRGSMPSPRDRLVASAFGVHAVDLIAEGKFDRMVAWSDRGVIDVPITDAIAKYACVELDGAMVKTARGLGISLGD

[5] = biological target: T5, PFK-A1 from Crocosphaera subtropica (Crocosphaera subtropica, UniProt B1WQ98); assay: coupled NADH assay, phosphate donor specificity; assay type: biochemical; details: 1 mM F6P, 2 mM ADP, 10 mM MgCl2, pH 7.7, 30 °C
T5 construct: gene pfkA1; codon-optimized gene in pET15b, His tag, E. coli Rosetta (DE3), IMAC
T5 sequence (B1WQ98 1-360): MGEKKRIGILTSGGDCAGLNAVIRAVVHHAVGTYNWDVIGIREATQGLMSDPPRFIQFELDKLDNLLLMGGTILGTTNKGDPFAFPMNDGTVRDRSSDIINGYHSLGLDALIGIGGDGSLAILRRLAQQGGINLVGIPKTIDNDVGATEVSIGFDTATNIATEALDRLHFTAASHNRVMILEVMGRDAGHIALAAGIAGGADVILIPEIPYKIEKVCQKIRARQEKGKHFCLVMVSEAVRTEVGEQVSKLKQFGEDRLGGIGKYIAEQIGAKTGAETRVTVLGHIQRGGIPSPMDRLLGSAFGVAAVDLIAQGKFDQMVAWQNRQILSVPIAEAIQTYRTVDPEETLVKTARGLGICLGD

purified protein = substrate: Nc1ncnc2c1ncn2[C@@H]1O[C@H](COP(=O)(O)OP(=O)(O)O)[C@@H](O)[C@H]1O; assay: purified protein; assay type: biochemical, Synechocystis sp. PCC 6803; details: MWC R-state constant, co-substrate F6P
[6] = biological target: the molecule itself; assay: native MS; nanoESI, Exactive Plus EMR Orbitrap, positive EMR mode; protein rebuffered to 200 mM or 1 M ammonium acetate pH 6.8, 5 uM stock; PFK-A1 also with F6P; self-association
[7] = biological target: the molecule itself; assay: SEC; HiLoad 16/600 Superdex 200 prep grade, 50 mM HEPES/NaOH pH 7.5 (RT), 300 mM NaCl, 3 mM dithiothreitol, 1 ml/min; calibrated with five standard proteins; PFK-A1 applied at 5 mg/ml (62.5 uM), PFK-A2 at 7 mg/ml (87.5 uM); self-association

C=C(OP(=O)(O)O)C(=O)O [PEP]
remaining activity at 1000 µM (PFK-A1 (Sll1196) [1]): 86%

Nc1ncnc2c1ncn2[C@@H]1O[C@H](COP(=O)(O)OP(=O)(O)OP(=O)(O)O)[C@@H](O)[C@H]1O [ATP]
remaining activity at 1000 µM (PFK-A1 (Sll1196) [1]): 96%
Ki (PFK-A2 (Sll0745)): 200 µM

O=C(O)[C@H](O)COP(=O)(O)O [3PG]
Ki (PFK-A1 (Sll1196) [2]): 110 µM

Nc1ncnc2c1ncn2[C@@H]1O[C@H](COP(=O)(O)OP(=O)(O)O)[C@@H](O)[C@H]1O [ADP]
coupled NADH assay, phosphate donor specificity [3]: all three tested enzymes were specific for ADP and showed no activity with ATP
coupled NADH assay, phosphate donor specificity [4]: all three tested enzymes were specific for ADP and showed no activity with ATP
coupled NADH assay, phosphate donor specificity [5]: all three tested enzymes were specific for ADP and showed no activity with ATP

B1: Synechocystis sp. PCC 6803 ADP-dependent phosphofructokinase PFK-A1 (Sll1196) (enzyme, UniProt P72830 1-361, looked up)
chain: MGEIKRIGILTSGGDCAGLNAVIRSVVHHAIGTYGWEVIGIQEATQGLMENPSKAIALHRDNIDHLLMMGGTFLGTTNKGNPFAFPMADGTVRDRTEDIIAGYRQLGLDALIGIGGDGSLAILRRIAQQGGINLVGIPKTIDNDVGATEISIGFDTATNIATEALDRLHFTAASHNRVMVLEVMGRDAGHIALAAGIGGGADIILIPEIPYRIQSVCNKIRQRQAEGKNFCLVMVSEAVRTELGDQVKQIQQFGEDRYGGIGKYIAEQIAQRTGAETRVTVLGHIQRGGIPSPFDRLLGSVFGVAAVDLIAEGKFDHMVAWRNRQTISVPIEEAIQTYQTVQLDGTLVKTARGLGICLGND
notes: Phosphofructokinase isoenzyme PFK-A1 (sll1196) of Synechocystis sp; PCC 6803, amplified from genomic DNA with primers from the start codon (NdeI) to the stop codon (BamHI); calculated mass 40.47 kDa; Oligomeric state differs by method (dimer by SEC, mainly tetramer by native MS), so copies is left empty; No tag cleavage is described; also called ADP-PFK-A1; source: E. coli Rosetta (DE3), pET15b, …
Km (purified protein; 10 mM MgCl2, pH 7.7, 30 °C): 0.14 (±0.01) mM
kcat (purified protein; 10 mM MgCl2, pH 7.7, 30 °C): 5.9 s⁻¹
stoichiometry N [6]: 4
stoichiometry N [7]: 2

B2: Synechocystis sp. PCC 6803 ADP-dependent phosphofructokinase PFK-A2 (Sll0745) (enzyme, UniProt Q55988 1-384, looked up)
chain: MGTKRIGILTSGGDCPGLNAVIRAVVKASALKGWEVYGIPYGTDGFVEVAHGKYQAEDLLLTKHGYALPGMLKGLDVLQFLSGSVLGSLSKGHPEQPAIAEAILKGYAILDLEALIVIGGDGSLDIIYDLAQKGNWHIIAIPKTIDNDVPFTDLAVGFSTAVDIVTQALYDLTFTAASHERIIIVQVMGRDAGHLTLHAGIAGGADIILIPEITPCLTSEIIRNCCYQLMNLRKSGRHFALIVISEGVHDQNNKKNKHIADYLAEEISETSQHLCDIKDPAFCDLISLDIRATTLGHLQRSGTPLSFDRLLATVFGIRAVELIEQEIYDQVVIWRSGKVEHADLKPIISIIKECHQENRCPFPVDRDGFMVKTAKSLGIYLGED
notes: Phosphofructokinase isoenzyme PFK-A2 (sll0745) of Synechocystis sp; PCC 6803, amplified from genomic DNA with primers from the start codon (NdeI) to the stop codon (BamHI); calculated mass 43.64 kDa; Mainly dimer by SEC and native MS, with a lesser tetramer by native MS, so copies is left empty; No tag cleavage is described; also called ADP-PFK-A2; source: E. coli Rosetta (DE3), pET15b, purified …
Km (purified protein; 5 mM MgCl2, pH 7.7, 30 °C): 0.17 (±0.03) mM
kcat (purified protein; 5 mM MgCl2, pH 7.7, 30 °C): 12.3 s⁻¹
stoichiometry N [6]: 4
stoichiometry N [7]: 2
